Laboratory results: FireProtDB (doi:10.1021/bi060907v)

Conditions: Thermococcus kodakarensis (strain ATCC BAA-918 / JCM 12380 / KOD1), pH 9, reversible: Yes, whole UniProt chain shown
[1] = 50 °C, GdnHCl, CD, Tris-HCl 20 mM

B1: Ribonuclease HII wild type, O74035 (protein)
chain: MKIAGIDEAGRGPVIGPMVIAAVVVDENSLPKLEELKVRDSKKLTPKRREKLFNEILGVLDDYVILELPPDVIGSREGTLNEFEVENFAKALNSLKVKPDVIYADAADVDEERFARELGERLNFEAEVVAKHKADDIFPVVSAASILAKVTRDRAVEKLKEEYGEIGSGYPSDPRTRAFLENYYREHGEFPPIVRKGWKTLKKIAEKVESEKKAEERQATLDRYFRKV
For B1, the denaturant m value [1] was 5.64 kcal/mol/M, the “denaturant midpoint (higher = more stable)” value [1] was 1.85 M and the Tm (Thermal, DSC, Gly-NaOH 20 mM) was 85.2 °C. For the same protein, the “unfolding enthalpy (calorimetric)” value (Thermal, DSC, Gly-NaOH 20 mM) was 137 kcal/mol and the “unfolding enthalpy (van 't Hoff)” value (Thermal, DSC, Gly-NaOH 20 mM) was 163 kcal/mol.
